# Data as given in patent US20220177602A1 (MacroGenics, published 2022).
# What was measured:
# [1] = molecular target: T1, soluble recombinant human FcγRIIIa (human, UniProt P08637 17-208, limits assumed); test: indirect competitive ELISA, FcγRIIIa coated, competitor MGAH22-Bt, against margetuximab Reference Standard; stored 2-8° C., 1 month
# T1 construct: Coated on the ELISA plate; also called CD16a; Fcγ Receptor subtype IIIa
# Procedure: (§1) Margetuximab contains point mutations in the Fc-domain that enhance the interaction of the margetuximab constant region with some human Fc receptors, in particular the Fcγ Receptor subtype […] (FcγRIIIa), also referred to as CD16a. The potency of the Fc domain is assessed with an indirect competitive enzyme linked immunosorbent assay (ELISA) essentially as described. The quantification of the binding of margetuximab test article Fc to the FcγRIIIa is measured by its ability to compete against the binding of a biotin-labeled margetuximab competitor sample (MGAH22-Bt). To perform the assay, soluble recombinant human FcγRIIIa is coated to the solid phase (96-well assay plates). A dilution series of margetuximab Test Article (TA) in a constant concentration of MGAH22-Bt is allowed to bind to the immobilized FcγRIIIa. A dilution-series of the test article and of the margetuximab Reference Standard is analyzed in this manner on the same assay plate, in order to generate dose-response curves for both the test article and the margetuximab Reference Standard. […] Oxidation of the added AP substrate by the conjugated AP yields a color product that can be measured at 405±10 nm. The intensity (absorbance) of the color signal is measured using a microplate reader. […] Data are fitted to a constrained four-parameter logistic model to describe absorbance signal as a function of margetuximab concentration. […]
# [2] = molecular target: T1, soluble recombinant human FcγRIIIa; test: indirect competitive ELISA, FcγRIIIa coated, competitor MGAH22-Bt, against margetuximab Reference Standard; stored 2-8° C., 0 months
# Procedure: as §1
# [3] = molecular target: T1, soluble recombinant human FcγRIIIa; test: indirect competitive ELISA, FcγRIIIa coated, competitor MGAH22-Bt, against margetuximab Reference Standard; stored 2-8° C., 3 months
# Procedure: as §1
# [4] = molecular target: T1, soluble recombinant human FcγRIIIa; test: indirect competitive ELISA, FcγRIIIa coated, competitor MGAH22-Bt, against margetuximab Reference Standard; stored 2-8° C., 6 months
# Procedure: as §1
# [5] = molecular target: T1, soluble recombinant human FcγRIIIa; test: indirect competitive ELISA, FcγRIIIa coated, competitor MGAH22-Bt, against margetuximab Reference Standard; stored 2-8° C., 9 months
# Procedure: as §1
# [6] = molecular target: T1, soluble recombinant human FcγRIIIa; test: indirect competitive ELISA, FcγRIIIa coated, competitor MGAH22-Bt, against margetuximab Reference Standard; stored 2-8° C., 12 months
# Procedure: as §1
# [7] = molecular target: T1, soluble recombinant human FcγRIIIa; test: indirect competitive ELISA, FcγRIIIa coated, competitor MGAH22-Bt, against margetuximab Reference Standard; stored 2-8° C., 18 months
# Procedure: as §1
# [8] = molecular target: T1, soluble recombinant human FcγRIIIa; test: indirect competitive ELISA, FcγRIIIa coated, competitor MGAH22-Bt, against margetuximab Reference Standard; stored 2-8° C., 24 months
# Procedure: as §1
# [9] = molecular target: T1, soluble recombinant human FcγRIIIa; test: indirect competitive ELISA, FcγRIIIa coated, competitor MGAH22-Bt, against margetuximab Reference Standard; stored 2-8° C., 30 months
# Procedure: as §1
# [10] = molecular target: T1, soluble recombinant human FcγRIIIa; test: indirect competitive ELISA, FcγRIIIa coated, competitor MGAH22-Bt, against margetuximab Reference Standard; stored 2-8° C., 33 months
# Procedure: as §1
# [11] = molecular target: T1, soluble recombinant human FcγRIIIa; test: indirect competitive ELISA, FcγRIIIa coated, competitor MGAH22-Bt, against margetuximab Reference Standard; stored 2-8° C., 36 months
# Procedure: as §1
# [12] = molecular target: T1, soluble recombinant human FcγRIIIa; test: indirect competitive ELISA, FcγRIIIa coated, competitor MGAH22-Bt, against margetuximab Reference Standard; stored 2-8° C., 48 months
# Procedure: as §1
# [13] = molecular target: T1, soluble recombinant human FcγRIIIa; test: indirect competitive ELISA, FcγRIIIa coated, competitor MGAH22-Bt, against margetuximab Reference Standard; stored 25 ± 2° C., column head 1 month
# Procedure: as §1
# [14] = molecular target: T1, soluble recombinant human FcγRIIIa; test: indirect competitive ELISA, FcγRIIIa coated, competitor MGAH22-Bt, against margetuximab Reference Standard; stored 25 ± 2° C., column head 0 months
# Procedure: as §1
# [15] = molecular target: T1, soluble recombinant human FcγRIIIa; test: indirect competitive ELISA, FcγRIIIa coated, competitor MGAH22-Bt, against margetuximab Reference Standard; stored 25 ± 2° C., column head 2 months
# Procedure: as §1
# [16] = molecular target: T1, soluble recombinant human FcγRIIIa; test: indirect competitive ELISA, FcγRIIIa coated, competitor MGAH22-Bt, against margetuximab Reference Standard; stored 25 ± 2° C., column head 3 months
# Procedure: as §1
# [17] = molecular target: T1, soluble recombinant human FcγRIIIa; test: indirect competitive ELISA, FcγRIIIa coated, competitor MGAH22-Bt, against margetuximab Reference Standard; stored 25 ± 2° C., column head 4 months
# Procedure: as §1
# [18] = molecular target: T1, soluble recombinant human FcγRIIIa; test: indirect competitive ELISA, FcγRIIIa coated, competitor MGAH22-Bt, against margetuximab Reference Standard; stored 25 ± 2° C., column head 5 months
# Procedure: as §1
# [19] = molecular target: T1, soluble recombinant human FcγRIIIa; test: indirect competitive ELISA, FcγRIIIa coated, competitor MGAH22-Bt, against margetuximab Reference Standard; stored 25 ± 2° C., column head 6 months
# Procedure: as §1
# T1 sequence (P08637 17-208 limits assumed): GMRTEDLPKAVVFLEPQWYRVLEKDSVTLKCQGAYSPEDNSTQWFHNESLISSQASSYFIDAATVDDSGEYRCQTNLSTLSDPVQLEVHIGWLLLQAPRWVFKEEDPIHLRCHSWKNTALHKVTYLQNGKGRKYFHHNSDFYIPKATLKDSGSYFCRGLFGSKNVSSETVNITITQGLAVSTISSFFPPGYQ
binder,measurement,setting,value
"margetuximab (antibody, human IgG1, kappa, Chimeric Fc-optimized IgG1/kappa monoclonal antibody; Tested as drug product Lot A in the F1 formulation after storage; also called MGAH22; Margetuximab DP Lot A; copies: 2 + 2) heavy: QVQLQQSGPELVKPGASLKLSCTASGFNIKDTYIHWVKQRPEQGLEWIGRIYPTNGYTRYDPKFQDKATITADTSSNTAYLQVSRLTSEDTAVYYCSRWGGDGFYAMDYWGQGASVTVSSASTKGPSVFPLAPSSKSTSGGTAALGCLVKDYFPEPVTVSWNSGALTSGVHTFPAVLQSSGLYSLSSVVTVPSSSLGTQTYICNVNHKPSNTKVDKRVEPKSCDKTHTCPPCPAPELVGGPSVFLLPPKPKDTLMISRTPEVTCVVVDVSHEDPEVKFNWYVDGVEVHNAKTKPPEEQYNSTLRVVSVLTVLHQDWLNGKEYKCKVSNKALPAPIEKTISKAKGQPREPQVYTLPPSRDELTKNQVSLTCLVKGFYPSDIAVEWESNGQPENNYKTTPLVLDSDGSFFLYSKLTVDKSRWQQGNVFSCSVMHEALHNHYTQKSLSLSPGK light: DIVMTQSHKFMSTSVGDRVSITCKASQDVNTAVAWYQQKPGHSPKLLIYSASFRYTGVPDRFTGSRSGTDFTFTISSVQAEDLAVYYCQQHYTTPPTFGGGTKVEIKRTVAAPSVFIFPPSDEQLKSGTASVVCLLNNFYPREAKVQWKVDNALQSGNSQESVTEQDSKDSTYSLSSTLTLSKADYEKHKVYACEVTHQGLSSPVTKSFNRGEC",relative potency by FcγRIIIa Binding ELISA (100% x IC50 Reference Standard/IC50 Test Article),[1],81%
same,relative potency by FcγRIIIa Binding ELISA (100% x IC50 Reference Standard/IC50 Test Article),[2],76%
same,relative potency by FcγRIIIa Binding ELISA (100% x IC50 Reference Standard/IC50 Test Article),[3],92%
same,relative potency by FcγRIIIa Binding ELISA (100% x IC50 Reference Standard/IC50 Test Article),[4],103%
same,relative potency by FcγRIIIa Binding ELISA (100% x IC50 Reference Standard/IC50 Test Article),[5],106%
same,relative potency by FcγRIIIa Binding ELISA (100% x IC50 Reference Standard/IC50 Test Article),[6],110%
same,relative potency by FcγRIIIa Binding ELISA (100% x IC50 Reference Standard/IC50 Test Article),[7],105%
same,relative potency by FcγRIIIa Binding ELISA (100% x IC50 Reference Standard/IC50 Test Article),[8],100%
same,relative potency by FcγRIIIa Binding ELISA (100% x IC50 Reference Standard/IC50 Test Article),[9],103%
same,relative potency by FcγRIIIa Binding ELISA (100% x IC50 Reference Standard/IC50 Test Article),[10],107%
same,relative potency by FcγRIIIa Binding ELISA (100% x IC50 Reference Standard/IC50 Test Article),[11],107%
same,relative potency by FcγRIIIa Binding ELISA (100% x IC50 Reference Standard/IC50 Test Article),[12],101%
same,relative potency by FcγRIIIa Binding ELISA (100% x IC50 Reference Standard/IC50 Test Article),[13],82%
same,relative potency by FcγRIIIa Binding ELISA (100% x IC50 Reference Standard/IC50 Test Article),[14],76%
same,relative potency by FcγRIIIa Binding ELISA (100% x IC50 Reference Standard/IC50 Test Article),[15],100%
same,relative potency by FcγRIIIa Binding ELISA (100% x IC50 Reference Standard/IC50 Test Article),[16],99%
same,relative potency by FcγRIIIa Binding ELISA (100% x IC50 Reference Standard/IC50 Test Article),[17],104%
same,relative potency by FcγRIIIa Binding ELISA (100% x IC50 Reference Standard/IC50 Test Article),[18],76%
same,relative potency by FcγRIIIa Binding ELISA (100% x IC50 Reference Standard/IC50 Test Article),[19],82%
